Source: patent US20210023094A1 (PSMA DEVELOPMENT, published 2021)

B1: PSMA ADC (AB-PG1-XG1-006 conjugated to maleimidocaproyl-valine-citrulline-p-aminobenzylcarbamate-monomethyl auristatin E), Example 1 (antibody, V domains shown)
VH: QVQLVESGGGVVQPGRSLRLSCAASGFAFSRYGMHWVRQAPGKGLEWVAVIWYDGSNKYYADSVKGRFTISRDNSKNTQYLQMNSLRAEDTAVYYCARGGDFLYYYYYGMDVWGQGTTVTVSS
VL: DIQMTQSPSSLSASVGDRVTITCRASQGISNYLAWYQQKTGKVPKFLIYEASTLQSGVPSRFSGGGSGTDFTLTISSLQPEDVATYYCQNYNSAPFTFGPGTKVDIK
modifications: vcMMAE on cysteine thiols of reduced disulfides; 3.0-3.5 drugs per mAb in total
B2: PSMA mAb vcMMAE (conjugate 699028A), Example 2 (antibody, V domains shown)
VH: QVQLVESGGGVVQPGRSLRLSCAASGFAFSRYGMHWVRQAPGKGLEWVAVIWYDGSNKYYADSVKGRFTISRDNSKNTQYLQMNSLRAEDTAVYYCARGGDFLYYYYYGMDVWGQGTTVTVSS
VL: DIQMTQSPSSLSASVGDRVTITCRASQGISNYLAWYQQKTGKVPKFLIYEASTLQSGVPSRFSGGGSGTDFTLTISSLQPEDVATYYCQNYNSAPFTFGPGTKVDIK
modifications: vcMMAE via thioether on interchain cysteine thiols; 4.3 drugs per mAb in total
B3: PSMA mAb mcMMAF (conjugate 699028C), Example 2 (antibody, V domains shown)
VH: QVQLVESGGGVVQPGRSLRLSCAASGFAFSRYGMHWVRQAPGKGLEWVAVIWYDGSNKYYADSVKGRFTISRDNSKNTQYLQMNSLRAEDTAVYYCARGGDFLYYYYYGMDVWGQGTTVTVSS
VL: DIQMTQSPSSLSASVGDRVTITCRASQGISNYLAWYQQKTGKVPKFLIYEASTLQSGVPSRFSGGGSGTDFTLTISSLQPEDVATYYCQNYNSAPFTFGPGTKVDIK
modifications: mcMMAF via thioether on interchain cysteine thiols; 4.4 drugs per mAb in total
B4: PSMA mAb vcMMAF (conjugate 699028B), Example 2 (antibody, V domains shown)
VH: QVQLVESGGGVVQPGRSLRLSCAASGFAFSRYGMHWVRQAPGKGLEWVAVIWYDGSNKYYADSVKGRFTISRDNSKNTQYLQMNSLRAEDTAVYYCARGGDFLYYYYYGMDVWGQGTTVTVSS
VL: DIQMTQSPSSLSASVGDRVTITCRASQGISNYLAWYQQKTGKVPKFLIYEASTLQSGVPSRFSGGGSGTDFTLTISSLQPEDVATYYCQNYNSAPFTFGPGTKVDIK
modifications: vcMMAF via thioether on interchain cysteine thiols; 4.4 drugs per mAb in total

What was measured:
[1] = target: T1, prostate-specific membrane antigen (PSMA), on cells (3T3-PSMA, C4-2, LNCaP) (Homo sapiens (Human), UniProt Q04609 1-750); test: cell-based or functional assay
[2] = target: T1, prostate-specific membrane antigen …; test: cell-based or functional assay; remark: listed apart in the source

T1 sequence (Q04609 whole entry): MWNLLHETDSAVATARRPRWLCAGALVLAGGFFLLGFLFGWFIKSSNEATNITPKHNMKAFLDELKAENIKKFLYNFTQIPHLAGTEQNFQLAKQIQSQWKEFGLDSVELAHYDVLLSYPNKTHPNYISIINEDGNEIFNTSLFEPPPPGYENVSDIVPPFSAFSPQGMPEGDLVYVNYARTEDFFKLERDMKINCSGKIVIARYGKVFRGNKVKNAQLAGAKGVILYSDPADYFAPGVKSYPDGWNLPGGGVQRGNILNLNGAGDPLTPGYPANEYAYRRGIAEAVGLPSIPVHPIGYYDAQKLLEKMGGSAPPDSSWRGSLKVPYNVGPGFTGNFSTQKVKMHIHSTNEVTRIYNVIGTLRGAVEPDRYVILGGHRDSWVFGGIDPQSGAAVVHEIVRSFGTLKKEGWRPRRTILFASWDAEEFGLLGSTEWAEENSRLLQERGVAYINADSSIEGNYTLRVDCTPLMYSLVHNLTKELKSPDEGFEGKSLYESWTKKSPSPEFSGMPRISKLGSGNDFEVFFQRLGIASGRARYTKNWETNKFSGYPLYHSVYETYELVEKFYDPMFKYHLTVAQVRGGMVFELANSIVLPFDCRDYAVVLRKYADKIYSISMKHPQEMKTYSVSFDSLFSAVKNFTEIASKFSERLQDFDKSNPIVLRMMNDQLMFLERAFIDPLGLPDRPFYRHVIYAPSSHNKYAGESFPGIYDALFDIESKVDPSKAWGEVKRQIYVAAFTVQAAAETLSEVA

| Binder | in vitro cytotoxicity IC50 on 3T3-PSMA cells (Alamar Blue, 4 days) [1] [pM] | in vitro cytotoxicity IC50 on C4-2 cells (Alamar Blue, 4 days) [1] [pM] | in vitro cytotoxicity IC50 on LNCaP cells (Alamar Blue, 4 days) [1] [pM] | in vitro potency IC50 on C4-2 cells (Alamar Blue, 4 days) [2] [pM] |
| --- | --- | --- | --- | --- |
| B1 | 208 | 65 | 83 |  |
| B2 |  |  |  | 60 |
| B3 |  |  |  | 42 |
| B4 |  |  |  | 11 |
